Data from PMC12861479, “SlERF.D2-mediated antagonism between ethylene and ABA signaling pathways modulates osmotic stress adaptation in tomato”.

Tests used:
Assay in all cases: EMSA; not stated; EMSA performed as in a previous study (ref 68)
MBP-SlEIL3 = target: T1, MBP-SlEIL3 (Solanum lycopersicum (tomato), UniProt Q94FV2 1-601); conditions: protein: recombinant; tags: MBP (pMAL-c5G); chain copies: 2; label: 5' biotin; blunt
T1 sequence: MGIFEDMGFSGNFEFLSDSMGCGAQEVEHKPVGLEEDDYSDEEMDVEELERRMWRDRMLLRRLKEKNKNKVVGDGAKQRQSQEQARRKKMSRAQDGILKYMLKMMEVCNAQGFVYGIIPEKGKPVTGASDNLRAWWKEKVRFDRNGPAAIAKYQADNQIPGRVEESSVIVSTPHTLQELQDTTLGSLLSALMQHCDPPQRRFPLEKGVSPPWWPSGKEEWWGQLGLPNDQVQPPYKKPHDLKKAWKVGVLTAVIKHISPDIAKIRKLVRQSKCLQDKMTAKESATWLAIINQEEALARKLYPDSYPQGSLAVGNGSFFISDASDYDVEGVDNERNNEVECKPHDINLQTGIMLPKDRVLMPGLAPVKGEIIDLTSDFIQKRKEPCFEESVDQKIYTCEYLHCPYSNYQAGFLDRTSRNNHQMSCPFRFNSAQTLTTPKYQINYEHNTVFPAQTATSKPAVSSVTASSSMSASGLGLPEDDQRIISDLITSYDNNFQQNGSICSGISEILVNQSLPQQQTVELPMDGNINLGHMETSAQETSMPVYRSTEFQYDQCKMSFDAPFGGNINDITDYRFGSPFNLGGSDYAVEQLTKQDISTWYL

MBP-SlEIL2 = target: T2, MBP-SlEIL2 (Solanum lycopersicum (tomato), UniProt Q94FV3 1-614); conditions: protein: recombinant; tags: MBP (pMAL-c5G); chain copies: 2; label: 5' biotin; blunt
T2 sequence: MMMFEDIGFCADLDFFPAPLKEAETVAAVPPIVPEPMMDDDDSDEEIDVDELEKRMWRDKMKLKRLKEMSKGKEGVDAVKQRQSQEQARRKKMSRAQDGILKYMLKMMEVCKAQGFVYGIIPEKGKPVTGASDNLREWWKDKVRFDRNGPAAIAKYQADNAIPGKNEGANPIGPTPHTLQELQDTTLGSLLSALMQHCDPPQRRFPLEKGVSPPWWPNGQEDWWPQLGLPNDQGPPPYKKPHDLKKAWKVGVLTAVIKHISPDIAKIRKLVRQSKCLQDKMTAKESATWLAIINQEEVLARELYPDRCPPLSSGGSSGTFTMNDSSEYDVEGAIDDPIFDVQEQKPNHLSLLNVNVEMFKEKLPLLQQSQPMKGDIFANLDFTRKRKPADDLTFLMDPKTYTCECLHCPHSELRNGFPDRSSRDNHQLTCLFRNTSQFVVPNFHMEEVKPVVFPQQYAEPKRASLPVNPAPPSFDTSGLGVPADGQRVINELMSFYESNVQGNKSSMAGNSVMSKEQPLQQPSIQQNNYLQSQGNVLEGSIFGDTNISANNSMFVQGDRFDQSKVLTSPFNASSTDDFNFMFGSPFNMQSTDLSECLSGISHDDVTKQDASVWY

MBP-SlEIL1 = target: T3, MBP-SlEIL1 (Solanum lycopersicum (tomato), UniProt Q94FV4 1-610); conditions: protein: recombinant; tags: MBP (pMAL-c5G); chain copies: 2; label: 5' biotin; blunt
T3 sequence: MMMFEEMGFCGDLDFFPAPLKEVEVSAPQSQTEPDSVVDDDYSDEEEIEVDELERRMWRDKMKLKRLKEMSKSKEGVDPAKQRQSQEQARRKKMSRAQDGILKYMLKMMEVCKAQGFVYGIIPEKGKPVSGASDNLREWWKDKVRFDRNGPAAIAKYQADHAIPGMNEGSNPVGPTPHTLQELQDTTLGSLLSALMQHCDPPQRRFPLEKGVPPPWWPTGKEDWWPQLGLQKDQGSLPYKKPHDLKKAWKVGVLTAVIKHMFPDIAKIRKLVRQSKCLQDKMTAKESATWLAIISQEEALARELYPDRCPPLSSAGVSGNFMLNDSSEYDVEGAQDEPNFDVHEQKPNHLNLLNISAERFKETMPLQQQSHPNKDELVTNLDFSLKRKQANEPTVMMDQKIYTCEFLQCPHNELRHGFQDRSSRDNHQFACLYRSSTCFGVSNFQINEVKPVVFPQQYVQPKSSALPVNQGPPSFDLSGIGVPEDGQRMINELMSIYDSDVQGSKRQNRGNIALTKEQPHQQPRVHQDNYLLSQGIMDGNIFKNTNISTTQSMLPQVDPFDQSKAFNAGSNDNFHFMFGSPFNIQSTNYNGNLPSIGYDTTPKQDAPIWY

MBP-SlEIL4 = MBP-SlEIL4 (Solanum lycopersicum (tomato), UniProt A0A3Q7GZH0 1-605); conditions: protein: recombinant; tags: MBP (pMAL-c5G); label: 5' biotin; blunt

Measured: binding result

B1: SlERF.D2 promoter EBS probe WT (dsDNA)
DNA 1: GTTATAACAGACATACATGCGCTAATATCG
DNA 2: CGATATTAGCGCATGTATGTCTGTTATAAC
binds: all assays above
